According to patent US6872536 (BRACCO IMAGING S P A, dated 2005):
Square brackets hold non-standard residues; d marks the D form. Ends that are not written are not given here. * marks the point of attachment. dimethylgly‑t‑butylgly‑cys‑gly = CN(C)CC(=O)N[C@H](C(=O)N[C@@H](CS)C(=O)NCC(=O)*)C(C)(C)C; Cyclopropanecarbonyl = O=C(C1CC1)*; Nle = CCCC[C@H](N)C(=O)O; For = O=C*

T1: N-formyl-methionyl-leucyl-phenylalanine (fMLF) receptor on elicited rat peritoneal neutrophils (rat, UniProt D4A7Q2 1-355)
T1 sequence: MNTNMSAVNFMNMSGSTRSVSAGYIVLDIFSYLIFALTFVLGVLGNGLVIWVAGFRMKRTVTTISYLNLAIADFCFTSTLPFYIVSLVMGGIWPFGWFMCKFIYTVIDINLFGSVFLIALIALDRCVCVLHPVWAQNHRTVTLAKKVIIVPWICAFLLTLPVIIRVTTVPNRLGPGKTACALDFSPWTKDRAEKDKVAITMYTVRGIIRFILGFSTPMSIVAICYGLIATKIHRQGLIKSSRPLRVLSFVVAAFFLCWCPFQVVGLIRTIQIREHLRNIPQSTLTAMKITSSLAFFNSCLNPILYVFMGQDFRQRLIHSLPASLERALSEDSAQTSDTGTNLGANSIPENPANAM

T2: N-formyl-methionyl-leucyl-phenylalanine (fMLF) receptor on human neutrophils (human, UniProt P21462 1-350)
T2 construct: whole, on cells; Native receptor on whole neutrophils from healthy volunteers; also called Human FPR; formyl peptide receptor
T2 sequence (looked up): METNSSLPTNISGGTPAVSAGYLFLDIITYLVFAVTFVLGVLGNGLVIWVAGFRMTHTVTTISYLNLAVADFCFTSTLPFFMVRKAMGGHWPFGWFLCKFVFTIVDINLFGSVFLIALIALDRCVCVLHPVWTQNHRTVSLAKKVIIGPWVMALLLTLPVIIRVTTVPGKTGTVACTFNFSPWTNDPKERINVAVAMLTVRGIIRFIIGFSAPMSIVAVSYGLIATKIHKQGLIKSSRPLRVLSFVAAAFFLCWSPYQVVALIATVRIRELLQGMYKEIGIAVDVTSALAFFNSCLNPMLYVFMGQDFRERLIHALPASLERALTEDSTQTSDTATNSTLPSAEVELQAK

B1: ReO-CyclopropylCONH-nleu-leu-phe-trp-his-lys(dimethylgly-t-butylgly-cys-gly)-gly-OH (peptide)
peptide: Cyclopropanecarbonyl-[Nle]LFWHK(dimethylgly‑t‑butylgly‑cys‑gly)G-OH
modifications: also: ReO (rhenium oxo) complex with Lys6 side-chain chelator
notes: Rhenium complex as tested; also called ReORP553 17-04; RP553-17-04
B2: ReO-CyclopropylCONH-nleu-leu-phe-ser-glu-lys(dimethylgly-t-butylgly-cys-gly)-gly-OH (peptide)
peptide: Cyclopropanecarbonyl-[Nle]LFSEKG-OH
modifications: not fully specified (residue 6); printed as ReO-CyclopropylCONH-nleu-leu-phe-ser-glu-lys(dimethylgly-t-butylgly-cys-gly)-gly-OH; also: ReO (rhenium oxo) complex on the side-chain chelate
notes: Rhenium complex as tested; also called ReORP553 17-02; RP553-17-02
B3: ReO-CyclopropylCONH-nleu-leu-phe-trp-glu-lys(dimethylgly-t-butylgly-cys-gly)-gly-OH (peptide)
peptide: Cyclopropanecarbonyl-[Nle]LFWEK(dimethylgly‑t‑butylgly‑cys‑gly)G-OH
modifications: also: ReO (rhenium oxo) complex with Lys6 side-chain chelator
notes: Rhenium complex as tested; also called ReORP553 17-01; RP553-17-01
B4: ReO-CyclopropylCONH-nleu-leu-phe-tyr-his-lys(dimethylgly-t-butylgly-cys-gly)-gly-OH (peptide)
peptide: Cyclopropanecarbonyl-[Nle]LFYHK(dimethylgly‑t‑butylgly‑cys‑gly)G-OH
modifications: also: ReO (rhenium oxo) complex with Lys6 side-chain chelator
notes: Rhenium complex as tested; also called ReORP553 17-06; RP553-17-06
B5: ReO-CyclopropylCONH-nleu-leu-phe-tyr-lys-lys(dimethylgly-t-butylgly-cys-gly)-gly-OH (peptide)
peptide: Cyclopropanecarbonyl-[Nle]LFYKK(dimethylgly‑t‑butylgly‑cys‑gly)G-OH
modifications: also: ReO (rhenium oxo) complex with Lys6 side-chain chelator
notes: Rhenium complex as tested; also called ReORP553 17-09; RP553-17-09
B6: ReO-CyclopropylCONH-nleu-leu-phe-ser-lys-lys(dimethylgly-t-butylgly-cys-gly)-gly-OH (peptide)
peptide: Cyclopropanecarbonyl-[Nle]LFSKK(dimethylgly‑t‑butylgly‑cys‑gly)G-OH
modifications: also: ReO (rhenium oxo) complex with Lys6 side-chain chelator
notes: Rhenium complex as tested; also called ReORP553 17-08; RP553-17-08
B7: ReO-CyclopropylCONH-nleu-leu-phe-trp-lys-lys(dimethylgly-t-butylgly-cys-gly)-gly-OH (peptide)
peptide: Cyclopropanecarbonyl-[Nle]LFWKK(dimethylgly‑t‑butylgly‑cys‑gly)G-OH
modifications: also: ReO (rhenium oxo) complex with Lys6 side-chain chelator
notes: Rhenium complex as tested; also called ReORP553 17-07; RP553-17-07
B8: ReO-CyclopropylCONH-nleu-leu-phe-ser-his-lys(dimethylgly-t-butylgly-cys-gly)-gly-OH (peptide)
peptide: Cyclopropanecarbonyl-[Nle]LFSHK(dimethylgly‑t‑butylgly‑cys‑gly)G-OH
modifications: also: ReO (rhenium oxo) complex with Lys6 side-chain chelator
notes: Rhenium complex as tested; also called ReORP553 17-05; RP553-17-05

Assays:
[1] = target: N-formyl-methionyl-leucyl-phenylalanine (fMLF) receptor on elicited rat peritoneal neutrophils (rat) (UniProt D4A7Q2); assay: cell-based or functional assay
[2] = target: N-formyl-methionyl-leucyl-phenylalanine (fMLF) receptor on elicited rat peritoneal neutrophils (rat) (UniProt D4A7Q2); assay: competition with 6 nM 3H-fMLF for binding to elicited rat peritoneal neutrophils, 4 C, filter harvest
[3] = target: N-formyl-methionyl-leucyl-phenylalanine (fMLF) receptor on elicited rat peritoneal neutrophils (rat) (UniProt D4A7Q2); assay: Scatchard transformation of the 3H-fMLF binding isotherm on elicited rat peritoneal neutrophils
[4] = target: N-formyl-methionyl-leucyl-phenylalanine (fMLF) receptor on human neutrophils (human) (UniProt P21462); assay: competition with 6 nM 3H-fMLF for binding to human neutrophils
[5] = target: N-formyl-methionyl-leucyl-phenylalanine (fMLF) receptor on elicited rat peritoneal neutrophils (rat) (UniProt D4A7Q2); assay: Scatchard analysis of 3H-fMLF saturation binding to elicited rat peritoneal neutrophils
[6] = target: N-formyl-methionyl-leucyl-phenylalanine (fMLF) receptor on elicited rat peritoneal neutrophils (rat) (UniProt D4A7Q2); assay: saturation binding of 3H-fMLF to elicited rat peritoneal neutrophils, one-site fit (Prism)
[7] = target: T1, N-formyl-methionyl-leucyl-phenylalanine …; assay: cell-based or functional assay
[8] = target: T1, N-formyl-methionyl-leucyl-phenylalanine …; assay: competition with 6 nM 3H-fMLF for binding to elicited rat peritoneal neutrophils, 4 C, filter harvest
Procedure: (§1) Neutrophils isolated by peritoneal lavage were washed twice with 1 mL of HBSS− (without calcium chloride, magnesium chloride and magnesium sulfate) and centrifuged for ten minutes at 2000 rpms following each wash. PMNs utilized in functional assays were centrifuged at 25° C. while those used in binding assays were centrifuged at 4° C. to prevent internalization. A cold H_2O RBC lysis was then performed with the addition of 9 mL of sterile ice-cold H_2O and 1 mL of phosphate buffered saline (PBS) solution containing 0.1 M phosphate buffer, 0.027 M KCl and 1.37 M NaCl following resuspension of the sample in 1 mL of HBSS−. Centrifugation was subsequently performed for ten minutes at 1600 rpms. White blood cell (WBC) differential stain containing saline, 2% acidic acid and phenol violet dye was used to identify the neutrophil population and trypan blue exclusion was used to determine viability of cells.
(§2) Total binding in the competition assays was assessed in the presence of 1.0 ×10^6 PMNs per sample while non-specific binding was determined in the absence of cells. Each condition was performed in quadruplicate.

[9] = target: T1, N-formyl-methionyl-leucyl-phenylalanine …; assay: competition with 6 nM 3H-fMLF on elicited rat neutrophils
Procedure: as §1, §2

[10] = target: T2, N-formyl-methionyl-leucyl-phenylalanine …; assay: competition with 6 nM 3H-fMLF for binding to human neutrophils

Row | Molecule | MPO release, % Control (1 uM) [1] | MPO release, % Control (10 uM) [1] | IC50 [8] | fold more potent than N-t-BocMLF [9] | further results
1 | 2-acetamido-5-thiazolesulfonyl-NleLFK (peptide) | 118 % control | 176 % control | – | – | –
2 | 2-methoxyacetyl-NleLFK (peptide) | 95 % control | 97.1 % control | – | – | –
3 | 2-quinoxazoyl-NleLFK (peptide) | 117 % control | 130 % control | – | – | % Control MPO Release (10 uM capping group + 0.1 uM fMLF) [1]: 240 % control; % Control MPO release (1 uM capping group + 0.1 uM fMLF) [1]: 323 % control
4 | 3-but-1-enoxycarbonyl-NleLFK (peptide) | 134 % control | 229 % control | – | – | –
5 | N,N-diethylcarbamoyl-NleLFK (peptide) | 114 % control | 110 % control | – | – | % Control MPO Release (10 uM capping group + 0.1 uM fMLF) [1]: 250 % control; % Control MPO release (1 uM capping group + 0.1 uM fMLF) [1]: 283 % control
6 | N,N-diphenylcarbamoyl-NleLFK (peptide) | 143 % control | 125 % control | – | – | % Control MPO Release (10 uM capping group + 0.1 uM fMLF) [1]: 186 % control; % Control MPO release (1 uM capping group + 0.1 uM fMLF) [1]: 322 % control
7 | N-formyl-methionyl-leucyl-phenylalanine (peptide) | – | – | – | – | IC50 [2]: 50 nM; x-intercept of Scatchard transformation [3]: 34; IC50 [4]: 5 nM; Kd [5]: 6.4 nM; binding sites per cell (binding sites per cell) [5]: 41000; EC50 of myeloperoxidase release from elicited rat PMNs [1]: 110 nM; Binding Sites/Cell (binding sites/cell) [6]: 40000; Kd [6]: 6.1 nM
8 | N-phenyl-N-methylcarbamoyl-NleLFK (peptide) | 94.7 % control | 68 % control | – | – | % Control MPO Release (10 uM capping group + 0.1 uM fMLF) [1]: 121 % control; % Control MPO release (1 uM capping group + 0.1 uM fMLF) [1]: 171 % control
9 | N-tert-butyloxycarbonylated-methionyl-leucyl-phenylalanine (peptide) | – | – | – | – | IC50 [2]: 9300 nM
10 | adamantylcarbonyl-NleLFK (peptide) | 70.5 % control | 71.7 % control | – | – | % Control MPO Release (10 uM capping group + 0.1 uM fMLF) [1]: 129 % control; % Control MPO release (1 uM capping group + 0.1 uM fMLF) [1]: 132 % control
11 | cyclopropylcarbonyl-NleLFK (peptide) | 108 % control | 91.8 % control | – | – | –
12 | fluorenylmethylcarbonyl-NleLFK (peptide) | 84.1 % control | 59.9 % control | – | – | % Control MPO Release (10 uM capping group + 0.1 uM fMLF) [1]: 109 % control; % Control MPO release (1 uM capping group + 0.1 uM fMLF) [1]: 162 % control
13 | furoyl-NleLFK (peptide) | 93 % control | 102 % control | – | – | –
14 | phenylthioacetyl-NleLFK (peptide) | 139 % control | 120 % control | – | – | –
15 | trans-cinnamoyl-NleLFK (peptide) | 133 % control | 196 % control | – | – | –
16 | For-MLFK [N-formyl-methionyl-leucyl-phenylalanyl-lysine] | – | – | – | – | EC50 of myeloperoxidase release from elicited rat PMNs [7]: 140 nM
17 | B1 | – | – | 1770 nM | ≥ 1.5 fold | –
18 | B2 | – | – | 2310 nM | ≥ 1.5 fold | –
19 | B3 | – | – | 730 nM | ≥ 1.5 fold | IC50 [10]: 140 nM; fold greater binding affinity than N-t-BocMLF [9]: ~12 fold; fold less binding affinity than fMLF [9]: ~15 fold
20 | B4 | – | – | 1220 nM | ≥ 1.5 fold | –
21 | B5 | – | – | 5930 nM | ≥ 1.5 fold | –
22 | B6 | – | – | 4950 nM | ≥ 1.5 fold | –
23 | B7 | – | – | 760 nM | ≥ 1.5 fold | –
24 | B8 | – | – | 1010 nM | ≥ 1.5 fold | –
